In patent US20210032312A1 (Janssen / Centocor, published 2021):

Assays:
[1] = target: T1, human CD8A-Fc (in house) (human, UniProt P01732 22-182, limits assumed); test: SPR (ProteOn), captured hCD8A-Fc
T1 construct: captured by goat anti-human Fc on the ProteOn chip; also called hCD8A-Fc; recombinant human CD8 alpha; not shown: linker/tag and Fc of human IgG1

[2] = target: T2, cynomolgus monkey CD8 alpha on primary cynomolgus CD8+ T cells (cynomolgus monkey, UniProt P01732 23-235 (human entry)); test: flow cytometry, cyno CD8+ T cells
T2 construct: also called Cyno CD8alpha; cyno CD8A
T2 sequence (P01732 other isoform, or with tags, fused parts or gaps limits assumed): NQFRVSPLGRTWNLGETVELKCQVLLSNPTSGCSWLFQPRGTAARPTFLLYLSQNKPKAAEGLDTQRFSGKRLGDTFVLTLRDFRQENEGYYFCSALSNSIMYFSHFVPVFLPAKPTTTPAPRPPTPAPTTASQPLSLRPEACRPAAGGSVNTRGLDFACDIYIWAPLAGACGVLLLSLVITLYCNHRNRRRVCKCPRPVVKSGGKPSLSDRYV
Protocol: (§1) Binding of the 190 ELISA hits to human and cynomologous monkey primary CD8 T cells was assessed by flow cytometry. The FN3 domain molecules were diluted to 2 μM and 0.2 μM in PBS and incubated with human or cynomologous monkey CD8+ T cells in 96-well format. After 1 hour at 4 C, the cells were washed once with PBS and then resuspended with an anti-FN3 domain antibody (PAB25) solution. Following this incubation, the cells were washed twice with PBS and a PE conjugated secondary antibody and a viability dye were added. Finally, cells were washed and resuspended in PBS for flow cytometric analysis using a BD Canto Instrument. Cells were gating on live cells and median fluorescence intensity of the bound Centyrins (PE channel) was calculated using Cytobank software.

[3] = target: T3, human CD8 alpha (CD8A) on primary human CD8+ T cells (human, UniProt P01732 22-235); test: flow cytometry, human CD8+ T cells
T3 construct: whole, on cells; also called hCD8A
Protocol: as §1
T3 sequence (P01732 22-235): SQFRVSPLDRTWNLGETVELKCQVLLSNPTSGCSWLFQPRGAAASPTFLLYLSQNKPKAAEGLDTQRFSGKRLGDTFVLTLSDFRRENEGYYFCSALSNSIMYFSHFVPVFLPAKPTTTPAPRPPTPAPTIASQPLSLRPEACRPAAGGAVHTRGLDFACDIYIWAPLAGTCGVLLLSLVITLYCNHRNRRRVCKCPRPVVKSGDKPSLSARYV

[4] = target: T4, In house human CD8A-Fc (human, UniProt P01732 22-182, limits assumed); test: SPR (ProteOn), captured hCD8A-Fc
T4 construct: Captured on goat anti-human Fc on a ProteOn GLC chip; also called hCD8A-Fc; recombinant human CD8 alpha; not shown: linker with flag (and polyhistidine) tag and Fc of human IgG1
T4 sequence (P01732 22-182 limits assumed): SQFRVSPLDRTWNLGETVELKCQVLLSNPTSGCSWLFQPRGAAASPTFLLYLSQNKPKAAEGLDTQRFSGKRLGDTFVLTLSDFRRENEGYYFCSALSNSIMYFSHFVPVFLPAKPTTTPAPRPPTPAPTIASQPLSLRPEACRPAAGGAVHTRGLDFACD

[5] = target: T5, cynomolgus monkey CD8A on primary cynomolgus monkey CD8+ T cells (cynomolgus monkey, UniProt P01732 23-235 (human entry)); test: flow cytometry, cyno CD8+ T cells, 2 uM FN3
T5 construct: also called Cyno CD8alpha
T5 sequence (P01732 other isoform, or with tags, fused parts or gaps limits assumed): as the sequence (P01732 other isoform, or with tags, fused parts or gaps limits assumed) above

[6] = target: T6, human CD8 alpha (CD8A) on primary human CD8+ T cells (human, UniProt P01732 22-235); test: flow cytometry, human CD8+ T cells, 2 uM FN3
T6 construct: whole, on cells; also called hCD8A
T6 sequence (P01732 22-235): as the sequence (P01732 22-235) above

[7] = target: T5, cynomolgus monkey CD8A on primary …; test: flow cytometry, cyno CD8+ T cells, 0.2 uM FN3
[8] = target: T6, human CD8 alpha (CD8A) on primary human …; test: flow cytometry, human CD8+ T cells, 0.2 uM FN3

T1 sequence (P01732 22-182 limits assumed): as the sequence (P01732 22-182 limits assumed) above

| Binder | koff [1] [s⁻¹] | Cyno T-cell Binding 0.2 uM (MFI) [2] [MFI] | Cyno T-cell Binding 2 uM (MFI) [2] [MFI] | Human T-cell Binding 0.2 uM (MFI) [3] [MFI] | Human T-cell Binding 2 uM (MFI) [3] [MFI] | koff [4] [s⁻¹] | Cyno T-cell Binding 2 uM (MFI) [5] [MFI] | Human T-cell Binding 2 uM (MFI) [6] [MFI] | Cyno T-cell Binding 0.2 uM (MFI) [7] [MFI] | Human T-cell Binding 0.2 uM (MFI) [8] [MFI] |
| --- | --- | --- | --- | --- | --- | --- | --- | --- | --- | --- |
| P283FR9P1366_H11 (designed binder, FN3 domain) LPAPKNLVVSRVTEDSARLSWTAPDAAFDSFQIQYLETAPDGEAIVLTVPGSERSYDLTGLKPGTEYYVWIPGVKGGAFSPLSAIFTT | 0.00139 | 3660 | 37400 | 2330 | 18900 | – | – | – | – | – |
| P283DR9P1364_E8 (designed binder, FN3 domain) LPAPKNLVVSRVTEDSARLSWTAPDAAFDSFSIAYPEWPVHGEAIVLTVPGSERSYDLTGLKPGTEYFVIIYGVKGGVLSEPLSAIFTT | 0.000756 | 5510 | 59300 | 1180 | 14300 | – | – | – | – | – |
| P283DR9P1364_A4 (designed binder, FN3 domain) LPAPKNLVVSRVTEDSARLSWTAPDAAFDSFYIAYPEWPVQGEAIVLTVPGSERSYDLTGLKPGTEYFVIIYGVKGGDWSEPLSAIFTT | 0.00109 | 6650 | 48300 | 1024 | 9490 | – | – | – | – | – |
| P283DR9P1364_A7 (designed binder, FN3 domain) LPAPKNLVVSRVTEDSARLSWTAPDAAFDSFRIAYPEWPVRGDAIVLTVPGSERSYDLTGLKPGTEYWVIIQGVKGGTDSFPLSAIFTT | 0.00197 | 2640 | 39900 | 435 | 8980 | – | – | – | – | – |
| P283DR9P1364_B1 (designed binder, FN3 domain) LPAPKNLVVSRVTEDSARLSWTAPDAAFDSFYITYPEIPLGGEAIVLTVPGSERSYDLTGLKPGTEYFVVIYGVKGGLLSSPLSAIFTT | 0.00156 | 746 | 8620 | 666 | 1480 | – | – | – | – | – |
| P283DR9P1364_B4 (designed binder, FN3 domain) LPAPKNLVVSRVTEDSARLSWTAPDAAFDSFAISYPEWPPPGEAIVLTVPGSERSYDLTGLKPGTEYWVIILGVKGGDQSWPLSAIFTT | 0.000109 | 20200 | 96500 | 6060 | 45500 | – | – | – | – | – |
| P283DR9P1364_B11 (designed binder, FN3 domain) LPAPKNLVVSRVTEDSARLSWTAPDAAFDSFYISYPEWEQLGEAIVLTVPGSERSYDLTGLKPGTEYFVVIYGVKGGALSAPLSAIFTT | 0.0013 | 1590 | 22900 | 451 | 4260 | – | – | – | – | – |
| P283DR9P1364_C10 (designed binder, FN3 domain) LPAPKNLVVSRVTEDSARLSWTAPDAAFDSFQIAYPEWPKDGEAIVLTVPGSERSYDLTGLKPGTEYAVFIWGVKGGVYSNPLSAIFTT | 0.00129 | 2710 | 34200 | 649 | 4940 | – | – | – | – | – |
| P282FR9P1361_F11 (designed binder, FN3 domain) LPAPKNLVVSRVTEDSARLSWTAPDAAFDSFGIWYREYGGSGEAIVLTVPGSERSYDLTGLKPGTEYDVAIWGVKGGVRSYPLSAIFTT | – | – | – | – | – | 0.00213 | 2290 | 2190 | 384 | 382 |
| P282FR9P1361_H4 (designed binder, FN3 domain) LPAPKNLVVSRVTEDSARLSWTAPDAAFDSFGIWYAEYGYSGEAIVLTVPGSERSYDLTGLKPGTEYDVAIYGVKGGSPSYPLSAIFTT | – | – | – | – | – | 0.000317 | 26300 | 13100 | 2500 | 3740 |
| P282FR9P1361_E12 (designed binder, FN3 domain) LPAPKNLVVSRVTEDSARLSWTAPDAAFDSLGITYWESPYAGEAIVLTVPGSERSYDLTGLKPGTEYGVFILGVKGGYPSAPLSAIFTT | – | – | – | – | – | 0.00109 | 63500 | 15800 | 15100 | 1130 |
| P282FR9P1361_G9 (designed binder, FN3 domain) LPAPKNLVVSRVTEDSARLSWTAPDAAFDSFGITYWESPYAGEAIVLTVPGSERSYDLTGLKPGTEYGVFILGVKGGYPSAPLSAIFTT | – | – | – | – | – | 0.00653 | 3750 | 859 | 666 | 297 |
| P282FR9P1361_F7 (designed binder, FN3 domain) LPAPKNLVVSRVTEDSARLSWTAPDAAFDSFPIWYREYATGEAIVLTVPGSERSYDLTGLKPGTEYDVVITGVKGGYPSYPLSAIFTT | – | – | – | – | – | 0.00114 | 1700 | 7000 | 353 | 1110 |
| P283AR9P1362_B10 (designed binder, FN3 domain) LPAPKNLVVSRVTEDSARLSWKRRWDSFDSFLIQYQESEKVGEAIVLTVPGSERSYDLTGLKPGTEYTVSIYGVDVEWFNGLPHHSNPLSAIFTT | – | – | – | – | – | 0.000139 | 35700 | 15400 | 8380 | 3700 |
| P283AR9P1362_B2 (designed binder, FN3 domain) LPAPKNLVVSRVTEDSARLSWAKHPNSFDSFLIQYQESEKVGEAIVLTVPGSERSYDLTGLKPGTEYTVSIYGVDVVVNELNNPLFSNPLSAIFTT | – | – | – | – | – | 0.00016 | 38800 | 13600 | 6480 | 3500 |
| P283AR9P1362_C6 (designed binder, FN3 domain) LPAPKNLVVSRVTEDSARLSWYPSDPPFDSFLIQYQESEKVGEAIVLTVPGSERSYDLTGLKPGTEYTVSIYGVPNYHSRRSYYYSNPLSAIFTT | – | – | – | – | – | 0.00109 | 17500 | 16000 | 5690 | 4150 |
| P283AR9P1362_D2 (designed binder, FN3 domain) LPAPKNLVVSRVTEDSARLSWQRPKSGFFDSFLIQYQESEKVGEAIVLTVPGSERSYDLTGLKPGTEYTVSIYGVDVKYDIDSRPISSNPLSAIFTT | – | – | – | – | – | 0.000253 | 17200 | 8650 | 5330 | 2760 |
| P283AR9P1362_H11 (designed binder, FN3 domain) LPAPKNLVVSRVTEDSARLSWPKIQGQHFDSFLIQYQESEKVGEAIVLTVPGSERSYDLTGLKPGTEYTVSIYGVDVKYDIDSRPISSNPLSAIFTT | – | – | – | – | – | 0.00018 | 11600 | 5730 | 3660 | 2270 |
| P283BR9P1363_A8 (designed binder, FN3 domain) LPAPKNLVVSRVTEDSARLSWVRSDTARFFDSFLIQYQESEKVGEAIVLTVPGSERSYDLTGLKPGTEYTVSIYGVDVKYDIDSRPISSNPLSAIFTT | – | – | – | – | – | 0.000353 | 24200 | 11300 | 3450 | 2540 |
| P283BR9P1363_C4 (designed binder, FN3 domain) LPAPKNLVVSRVTEDSARLSWPIVNTPLHFDSFLIQYQESEKVGEAIVLTVPGSERSYDLTGLKPGTEYTVSIYGVDVQYTATGQPERSNPLSAIFTT | – | – | – | – | – | 0.000409 | 23400 | 9070 | 3270 | 2250 |
| P283BR9P1363_D11 (designed binder, FN3 domain) LPAPKNLVVSRVTEDSARLSWNKKHDGQPTFDSFLIQYQESEKVGEAIVLTVPGSERSYDLTGLKPGTEYTVSIYGVDVVYEGSYPASSNPLSAIFTT | – | – | – | – | – | 0.000495 | 20600 | 8690 | 11600 | 2890 |
